Measurements as given in patent US20250171562A1 (ALK ABELL, published 2025).

Biological target: T1, recombinant human IgE (human, UniProt P01854-1 1-428)
T1 construct: made in-house (ALK); preloaded on immobilised FcεRIα in the displacement ELISA
Test: IgE-FcεRIα displacement ELISA
How it was run: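 Streptavidin-coated plates carried site-specifically biotinylated recombinant human FcεRIα, loaded with recombinant human IgE at 13 ng/ml. sdAbs in a pM–μM series were added for 1 h, and displaced IgE was washed off. Percent displacement was the signal reduction versus the no-sdAb control, giving EC50 and maximal effect.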

T1 sequence (P01854 other isoform, or with tags, fused parts or gaps): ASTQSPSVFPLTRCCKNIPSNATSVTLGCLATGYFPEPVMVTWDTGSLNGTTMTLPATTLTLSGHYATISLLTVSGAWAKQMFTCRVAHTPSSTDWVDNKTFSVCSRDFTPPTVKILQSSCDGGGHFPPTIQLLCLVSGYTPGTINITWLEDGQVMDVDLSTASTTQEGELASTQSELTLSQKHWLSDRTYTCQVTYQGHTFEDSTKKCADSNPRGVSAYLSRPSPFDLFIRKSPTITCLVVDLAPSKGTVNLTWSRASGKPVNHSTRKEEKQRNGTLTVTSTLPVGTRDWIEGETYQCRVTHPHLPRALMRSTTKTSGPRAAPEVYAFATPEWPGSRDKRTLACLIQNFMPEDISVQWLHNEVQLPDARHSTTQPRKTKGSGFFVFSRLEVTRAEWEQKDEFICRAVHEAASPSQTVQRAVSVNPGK

EC50 [µM]	Max effect [%]	Binder
0.017	90	CIgG4F4A1(G4S)1 (Fc fusion) chain 1: GPPCPPCPAPEFLGGPSVFLFPPKPKDTLMISRTPEVTCVVVDVSQEDPEVQFNWYVDGVEVHNAKTKPREEQFNSTYRVVSVLTVLHQDWLNGKEYKCKVSNKGLPSSIEKTISKAKGQPREPQVYTLPPCQEEMTKNQVSLWCLVKGFYPSDIAVEWESNGQPENNYKTTPPVLDSDGSFFLYSRLTVDKSRWQEGNVFSCSVMHEALHNHYTQKSLSLSLGKGGGGSDVQLQESGGGLVQAGGSLRLSCAVSGLSFSSMGWFRQPPGKEREFVAAISLYSGSTYYADSVKGRFTISSDNAKSTVYLQMNSLKPEDAAVYFCAADRQRTWSTFYASRQATYNYWGQGTQVTVTS chain 2: GPPCPPCPAPEFLGGPSVFLFPPKPKDTLMISRTPEVTCVVVDVSQEDPEVQFNWYVDGVEVHNAKTKPREEQFNSTYRVVSVLTVLHQDWLNGKEYKCKVSNKGLPSSIEKTISKAKGQPREPQVCTLPPSQEEMTKNQVSLSCAVKGFYPSDIAVEWESNGQPENNYKTTPPVLDSDGSFFLVSRLTVDKSRWQEGNVFSCSVMHEALHNHYTQKSLSLSLGKGGGGSEVQLLESGGGLVQPGGSLRLSCAASGFTFGNYDMAWVRQAPGKRPEWVSSIDTGGDITHYADSVKGRFTISRDNAKNTLYLQMNSLRPEDTAVYWCATDEEYALGPNEFDYYGQGTLVTVSS
	30	CIgG4F5A1(G4S)1 (Fc fusion) chain 1: GPPCPPCPAPEFLGGPSVFLFPPKPKDTLMISRTPEVTCVVVDVSQEDPEVQFNWYVDGVEVHNAKTKPREEQFNSTYRVVSVLTVLHQDWLNGKEYKCKVSNKGLPSSIEKTISKAKGQPREPQVYTLPPCQEEMTKNQVSLWCLVKGFYPSDIAVEWESNGQPENNYKTTPPVLDSDGSFFLYSRLTVDKSRWQEGNVFSCSVMHEALHNHYTQKSLSLSLGKGGGGSDVQLQESGGGLVQPGGSLRLSCAASGSIFSIDIMGWYRQAPGKQRELVATMPEGNYINYADSVKGRLTLSRDKGKNTVYLQLNSLKPEDTAVYYCYGFGVREGRGNVYWGQGTQVTVS chain 2: GPPCPPCPAPEFLGGPSVFLFPPKPKDTLMISRTPEVTCVVVDVSQEDPEVQFNWYVDGVEVHNAKTKPREEQFNSTYRVVSVLTVLHQDWLNGKEYKCKVSNKGLPSSIEKTISKAKGQPREPQVCTLPPSQEEMTKNQVSLSCAVKGFYPSDIAVEWESNGQPENNYKTTPPVLDSDGSFFLVSRLTVDKSRWQEGNVFSCSVMHEALHNHYTQKSLSLSLGKGGGGSEVQLLESGGGLVQPGGSLRLSCAASGFTFGNYDMAWVRQAPGKRPEWVSSIDTGGDITHYADSVKGRFTISRDNAKNTLYLQMNSLRPEDTAVYWCATDEEYALGPNEFDYYGQGTLVTVSS
0.03	90	CIgG4F4A1(G4S)2 (Fc fusion) chain 1: GPPCPPCPAPEFLGGPSVFLFPPKPKDTLMISRTPEVTCVVVDVSQEDPEVQFNWYVDGVEVHNAKTKPREEQFNSTYRVVSVLTVLHQDWLNGKEYKCKVSNKGLPSSIEKTISKAKGQPREPQVYTLPPCQEEMTKNQVSLWCLVKGFYPSDIAVEWESNGQPENNYKTTPPVLDSDGSFFLYSRLTVDKSRWQEGNVFSCSVMHEALHNHYTQKSLSLSLGKGGGGSGGGGSDVQLQESGGGLVQAGGSLRLSCAVSGLSFSSMGWFRQPPGKEREFVAAISLYSGSTYYADSVKGRFTISSDNAKSTVYLQMNSLKPEDAAVYFCAADRQRTWSTFYASRQATYNYWGQGTQVTVTS chain 2: GPPCPPCPAPEFLGGPSVFLFPPKPKDTLMISRTPEVTCVVVDVSQEDPEVQFNWYVDGVEVHNAKTKPREEQFNSTYRVVSVLTVLHQDWLNGKEYKCKVSNKGLPSSIEKTISKAKGQPREPQVCTLPPSQEEMTKNQVSLSCAVKGFYPSDIAVEWESNGQPENNYKTTPPVLDSDGSFFLVSRLTVDKSRWQEGNVFSCSVMHEALHNHYTQKSLSLSLGKGGGGSGGGGSEVQLLESGGGLVQPGGSLRLSCAASGFTFGNYDMAWVRQAPGKRPEWVSSIDTGGDITHYADSVKGRFTISRDNAKNTLYLQMNSLRPEDTAVYWCATDEEYALGPNEFDYYGQGTLVTVSS
	> 95	NIgG4F4A1(G4S)3 (Fc fusion) chain 1: DVQLQESGGGLVQAGGSLRLSCAVSGLSFSSMGWFRQPPGKEREFVAAISLYSGSTYYADSVKGRFTISSDNAKSTVYLQMNSLKPEDAAVYFCAADRQRTWSTFYASRQATYNYWGQGTQVTVTSGGGGSGGGGSGGGGSGPPCPPCPAPEFLGGPSVFLFPPKPKDTLMISRTPEVTCVVVDVSQEDPEVQFNWYVDGVEVHNAKTKPREEQFNSTYRVVSVLTVLHQDWLNGKEYKCKVSNKGLPSSIEKTISKAKGQPREPQVYTLPPCQEEMTKNQVSLWCLVKGFYPSDIAVEWESNGQPENNYKTTPPVLDSDGSFFLYSRLTVDKSRWQEGNVFSCSVMHEALHNHYTQKSLSLSLGK chain 2: EVQLLESGGGLVQPGGSLRLSCAASGFTFGNYDMAWVRQAPGKRPEWVSSIDTGGDITHYADSVKGRFTISRDNAKNTLYLQMNSLRPEDTAVYWCATDEEYALGPNEFDYYGQGTLVTVSSGGGGSGGGGSGGGGSGPPCPPCPAPEFLGGPSVFLFPPKPKDTLMISRTPEVTCVVVDVSQEDPEVQFNWYVDGVEVHNAKTKPREEQFNSTYRVVSVLTVLHQDWLNGKEYKCKVSNKGLPSSIEKTISKAKGQPREPQVCTLPPSQEEMTKNQVSLSCAVKGFYPSDIAVEWESNGQPENNYKTTPPVLDSDGSFFLVSRLTVDKSRWQEGNVFSCSVMHEALHNHYTQKSLSLSLGK
0.05	90	CIgG4F4A1(G4S)3 (Fc fusion) chain 1: GPPCPPCPAPEFLGGPSVFLFPPKPKDTLMISRTPEVTCVVVDVSQEDPEVQFNWYVDGVEVHNAKTKPREEQFNSTYRVVSVLTVLHQDWLNGKEYKCKVSNKGLPSSIEKTISKAKGQPREPQVYTLPPCQEEMTKNQVSLWCLVKGFYPSDIAVEWESNGQPENNYKTTPPVLDSDGSFFLYSRLTVDKSRWQEGNVFSCSVMHEALHNHYTQKSLSLSLGKGGGGSGGGGSGGGGSDVQLQESGGGLVQAGGSLRLSCAVSGLSFSSMGWFRQPPGKEREFVAAISLYSGSTYYADSVKGRFTISSDNAKSTVYLQMNSLKPEDAAVYFCAADRQRTWSTFYASRQATYNYWGQGTQVTVTS chain 2: GPPCPPCPAPEFLGGPSVFLFPPKPKDTLMISRTPEVTCVVVDVSQEDPEVQFNWYVDGVEVHNAKTKPREEQFNSTYRVVSVLTVLHQDWLNGKEYKCKVSNKGLPSSIEKTISKAKGQPREPQVCTLPPSQEEMTKNQVSLSCAVKGFYPSDIAVEWESNGQPENNYKTTPPVLDSDGSFFLVSRLTVDKSRWQEGNVFSCSVMHEALHNHYTQKSLSLSLGKGGGGSGGGGSGGGGSEVQLLESGGGLVQPGGSLRLSCAASGFTFGNYDMAWVRQAPGKRPEWVSSIDTGGDITHYADSVKGRFTISRDNAKNTLYLQMNSLRPEDTAVYWCATDEEYALGPNEFDYYGQGTLVTVSS
0.09	70	CIgG4F4A1(RS) (Fc fusion) chain 1: GPPCPPCPAPEFLGGPSVFLFPPKPKDTLMISRTPEVTCVVVDVSQEDPEVQFNWYVDGVEVHNAKTKPREEQFNSTYRVVSVLTVLHQDWLNGKEYKCKVSNKGLPSSIEKTISKAKGQPREPQVYTLPPCQEEMTKNQVSLWCLVKGFYPSDIAVEWESNGQPENNYKTTPPVLDSDGSFFLYSRLTVDKSRWQEGNVFSCSVMHEALHNHYTQKSLSLSLGKRSDVQLQESGGGLVQAGGSLRLSCAVSGLSFSSMGWFRQPPGKEREFVAAISLYSGSTYYADSVKGRFTISSDNAKSTVYLQMNSLKPEDAAVYFCAADRQRTWSTFYASRQATYNYWGQGTQVTVTS chain 2: GPPCPPCPAPEFLGGPSVFLFPPKPKDTLMISRTPEVTCVVVDVSQEDPEVQFNWYVDGVEVHNAKTKPREEQFNSTYRVVSVLTVLHQDWLNGKEYKCKVSNKGLPSSIEKTISKAKGQPREPQVCTLPPSQEEMTKNQVSLSCAVKGFYPSDIAVEWESNGQPENNYKTTPPVLDSDGSFFLVSRLTVDKSRWQEGNVFSCSVMHEALHNHYTQKSLSLSLGKRSEVQLLESGGGLVQPGGSLRLSCAASGFTFGNYDMAWVRQAPGKRPEWVSSIDTGGDITHYADSVKGRFTISRDNAKNTLYLQMNSLRPEDTAVYWCATDEEYALGPNEFDYYGQGTLVTVSS
	15	CIgG4F5A1(RS) (Fc fusion) chain 1: GPPCPPCPAPEFLGGPSVFLFPPKPKDTLMISRTPEVTCVVVDVSQEDPEVQFNWYVDGVEVHNAKTKPREEQFNSTYRVVSVLTVLHQDWLNGKEYKCKVSNKGLPSSIEKTISKAKGQPREPQVYTLPPCQEEMTKNQVSLWCLVKGFYPSDIAVEWESNGQPENNYKTTPPVLDSDGSFFLYSRLTVDKSRWQEGNVFSCSVMHEALHNHYTQKSLSLSLGKRSDVQLQESGGGLVQPGGSLRLSCAASGSIFSIDIMGWYRQAPGKQRELVATMPEGNYINYADSVKGRLTLSRDKGKNTVYLQLNSLKPEDTAVYYCYGFGVREGRGNVYWGQGTQVTVS chain 2: GPPCPPCPAPEFLGGPSVFLFPPKPKDTLMISRTPEVTCVVVDVSQEDPEVQFNWYVDGVEVHNAKTKPREEQFNSTYRVVSVLTVLHQDWLNGKEYKCKVSNKGLPSSIEKTISKAKGQPREPQVCTLPPSQEEMTKNQVSLSCAVKGFYPSDIAVEWESNGQPENNYKTTPPVLDSDGSFFLVSRLTVDKSRWQEGNVFSCSVMHEALHNHYTQKSLSLSLGKRSEVQLLESGGGLVQPGGSLRLSCAASGFTFGNYDMAWVRQAPGKRPEWVSSIDTGGDITHYADSVKGRFTISRDNAKNTLYLQMNSLRPEDTAVYWCATDEEYALGPNEFDYYGQGTLVTVSS
	> 95	NIgG4F4A1(G4S)2 (Fc fusion) chain 1: DVQLQESGGGLVQAGGSLRLSCAVSGLSFSSMGWFRQPPGKEREFVAAISLYSGSTYYADSVKGRFTISSDNAKSTVYLQMNSLKPEDAAVYFCAADRQRTWSTFYASRQATYNYWGQGTQVTVTSGGGGSGGGGSGPPCPPCPAPEFLGGPSVFLFPPKPKDTLMISRTPEVTCVVVDVSQEDPEVQFNWYVDGVEVHNAKTKPREEQFNSTYRVVSVLTVLHQDWLNGKEYKCKVSNKGLPSSIEKTISKAKGQPREPQVYTLPPCQEEMTKNQVSLWCLVKGFYPSDIAVEWESNGQPENNYKTTPPVLDSDGSFFLYSRLTVDKSRWQEGNVFSCSVMHEALHNHYTQKSLSLSLGK chain 2: EVQLLESGGGLVQPGGSLRLSCAASGFTFGNYDMAWVRQAPGKRPEWVSSIDTGGDITHYADSVKGRFTISRDNAKNTLYLQMNSLRPEDTAVYWCATDEEYALGPNEFDYYGQGTLVTVSSGGGGSGGGGSGPPCPPCPAPEFLGGPSVFLFPPKPKDTLMISRTPEVTCVVVDVSQEDPEVQFNWYVDGVEVHNAKTKPREEQFNSTYRVVSVLTVLHQDWLNGKEYKCKVSNKGLPSSIEKTISKAKGQPREPQVCTLPPSQEEMTKNQVSLSCAVKGFYPSDIAVEWESNGQPENNYKTTPPVLDSDGSFFLVSRLTVDKSRWQEGNVFSCSVMHEALHNHYTQKSLSLSLGK
